Residue numbers refer to the chain shown, from its start.
Legend:
Experiment in all cases: pull-down
wild-type ClpP(6His) = wild-type ClpP(6His) (B. subtilis, UniProt P80244 1-197)
ClpP(6His)^TRAP = ClpP(6His)^TRAP (B. subtilis, UniProt P80244 1-197, Ser98Ala)
MecA = target: T1, MecA (B. subtilis, UniProt P37958 1-218)
T1 sequence (looked up): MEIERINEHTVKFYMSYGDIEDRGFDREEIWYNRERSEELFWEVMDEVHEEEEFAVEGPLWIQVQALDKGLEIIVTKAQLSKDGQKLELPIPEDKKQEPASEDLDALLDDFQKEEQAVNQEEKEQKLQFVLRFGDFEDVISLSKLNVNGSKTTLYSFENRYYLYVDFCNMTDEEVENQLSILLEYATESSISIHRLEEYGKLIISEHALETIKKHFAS

B1: endogenous ClpP (enzyme)
chain: not shown
B1: binds (wild-type ClpP(6His)); binds (ClpP(6His)^TRAP).

B2: ClpC^NTD(1–150) (domain or fragment, B. subtilis, UniProt P37571 1-150, looked up)
chain: MMFGRFTERAQKVLALAQEEALRLGHNNIGTEHILLGLVREGEGIAAKALQALGLGSEKIQKEVESLIGRGQEMSQTIHYTPRAKKVIELSMDEARKLGHSYVGTEHILLGLIREGEGVAARVLNNLGVSLNKARQQVLQLLGSNETGSS
B2: binds (MecA).

B3: ClpC NTD^EA mutant (domain or fragment, B. subtilis, UniProt P37571 1-150, looked up)
chain: B2 chain with E32A, E106A
B3: binds (MecA).
